Patent US20250243262A1 (AstraZeneca / MedImmune, published 2025)

Molecular target: PcrV on live P. aeruginosa (type III secretion system of the infecting bacteria) (Pseudomonas aeruginosa)
Experiment: cell-based or functional assay

B1: V2L2 anti-PcrV monoclonal antibody (antibody, IgG1, V domains shown)
VH: EMQLLESGGGLVQPGGSLRLSCAASGFTFSSYAMNWVRQAPGEGLEWVSAITISGITAYYTDSVKGRFTISRDNSKNTLYLQMNSLRAGDTAVYYCAKEEFLPGTHYYYGMDVWGQGTTVTVSS
VL: AIQMTQSPSSLSASVGDRVTITCRASQGIRNDLGWYQQKPGKAPKLVIYSASTLQSGVPSRFSGSGSGTDFTLSISSLQPDDFATYYCLQDYNYPWTFGQGTKVEIK
  inhibition of cytotoxicity, IC50 against that of mAb166: 28 fold
  percent inhibition of cytotoxicity (lysis of A549 cells by P. aeruginosa 6077, LDH release), IC50: 0.1 µg/mL
  prevention of RBC lysis, IC50 against that of mAb166: 10 fold
  prevention of lysis of rabbit RBCs by P. aeruginosa 6077, IC50: 0.37 µg/mL
